Data as given in the nanobody polyreactivity screen of Harvey et al. (2022).

Test: yeast display, Sf9 membrane polyspecificity reagent, FACS + sequencing; frameworks hold sequencing errors
In short: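 Genes from sorted yeast were amplified by colony PCR, read by MiSeq 2 × 250 sequencing and filtered on CDR length. These cells carried a synthetic nanobody library in Saccharomyces cerevisiae BJ5465 and were sorted by FACS into low and high (top ~1%) gates on anti-HA and streptavidin fluorescence. Polyreactivity is labelled according to the gate of origin.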

| Sequence | polyreactivity (PSR sort gate) |
| --- | --- |
| QVQLVESGGGLVQAGGSLRLSCAASGSTFVPYVMGWYRQAPGKERELVAAISKSGTSTYYADSVKGRFTISRDNAKNTDYLQMNSLKPEDTAVYYCAAVARRQVPYDYWGQGTQVTVSS | high polyreactivity |
| QVQLVESGGGLVQAGGSLRLSCAASGSTFVQNDMGWYIPAPGKERELVAAISRTGGSTYYADSVKGRFTISRDNAKNTVYLQMNSLKPEDTAVYYCARRYYYQYRYDYWGQGTQVTVSS | high polyreactivity |
| QVQLVESGGGLVQAGGSLRLSCAASGSTFVQYAMGWYRQAPGKERELVAAITRSGGSTYYADSVKGRFTISRDNAKNTVYLQMNSLKPEDTAVYYCAARHYRSRDGYWGQGTQVTVSS | high polyreactivity |
| QVQLVESGGGLVQAGGSLRLSCAASGSTFVRNAMGWYRQAPGKERELVAAIRWRSGSTYYADSVKGRFTISRDNAKNTVYLQMNSLKPEDTAVYYCAVDYNSFRYGPLGYWGQGTQVTVSS | high polyreactivity |
| QVQLVESGGGLVQAGGSLRLSCAASGSTFVRNAMGWYRQAPGKERELVAAISNVGSTYYADSVKGRFTISRDNAKNTVYLQMNSLKPEDTAVYYGTKQLWYHKFNYWGQGTQVTVSS | low polyreactivity |
| QVQLVESGGGLVQAGGSLRLSCAASGSTFVRNAMGWYRQAPGKERELVAAITSSGGSTYYADSVKGRFTISRDNAKNTVYLQMNSLKPVDTAVYYCNARVPPQGWGPWKAFDYWGQGTQVTVSS | low polyreactivity |
| QVQLVESGGGLVQAGGSLRLSCAASGSTFVRYAMGWYRQAPGKEREFVASITCRGGSTYYADSVKGRFTITRDNAKNTVYLQMNSLKPEDTAVYYCAARGREWYYWGQGTQVTVSS | high polyreactivity |
| QVQLVESGGGLVQAGGSLRLSCAASGSTFVSNAMGWYRQAPGKERELVARITGSGGNTYYADSVKGRFTISRDNAKNTVYLQMNSLKPEDTAVYYCNADVFRKFGSPSAYKSHRYDYWGQGTQVTVSS | low polyreactivity |
| QVQLVESGGGLVQAGGSLRLSCAASGSTFVSNTMGWYRQAPGKERELVAAITWTGGRTYYADSVKGRFTISRDNAKNTVYLQMNSLKPEDTAVYYCAAVGTRKMYYWGQGTQVTVSS | high polyreactivity |
| QVQLVESGGGLVQAGGSLRLSCAASGSTFVTNAMGWYRQAPGKEREFVAAISNSSGSTYYADSVKGRFTISRDNAKNTVYLQMNSLKPEDTAVYYCIATPDDWLQEDYWGQGTQVTVSS | low polyreactivity |
| QVQLVESGGGLVQAGGSLRLSCAASGSTFVTNGMGWYRQEPGKERELVAAISGNVGSTYYADSVKGRFTISRDNEKNTVYLQMNSLKPEDTAVYYCAARQYRPSDYDYWGQGTQVTVSS | low polyreactivity |
| QVQLVESGGGLVQAGGSLRLSCAASGSTFVTNVMGWYRQATGKERELVAAISYSGGNTYYEDSVKGRFTISRDNAKNTVYLQMNSLKPEDTAVYYCAAKYRRWGMEYWGQGTQVTVSS | high polyreactivity |
| QVQLVESGGGLVQAGGSLRLSCAASGSTFVTYAMGRYRQAPGKERELVAAISSAGSTNYADSVKGRFTISRDNAKNTVYLQMNSLKPEDTAVYYCARDIQDTYEFDYWGQGTQVTVSS | low polyreactivity |
| QVQLVESGGGLVQAGGSLRLSCAASGSTFVTYTMGWYRQAPGKEREFVATISRSGCSTYYADSVKGRFTISRDNAKNTVYLQMNSLKPEDTAVYYCAAVRLVISKYWYIPYDYWGQGTQVTVSS | low polyreactivity |
| QVQLVESGGGLVQAGGSLRLSCAASGSTFVVNAMGWYRQAPGKERELVAAITQSGGSTFYADSVKGRFTISRDNAKNTVYLQMNSLKPEDTAVYYWGLGTQVTVSS | low polyreactivity |
| QVQLVESGGGLVQAGGSLRLSCAASGSTFVVNAMVWYRQAPGKERELVAAITQDGDGTYYADSVKGRFTISRDNAKNTVYLQMNSLKPEDTAVYYCAAYPFYGPYDEFDYWGQGTQVTVSS | low polyreactivity |
| QVQLVESGGGLVQAGGSLRLSCAASGSTFVVYAMGWYRQAPGKEREFVAAITYRGGRTYYADSVKGRFTISRDNAKNTVYLQMNSLKPEDTAVYYCNAPIVRSGYVRSIPAVYYSYYYWGQGTQVTVSS | high polyreactivity |
| QVQLVESGGGLVQAGGSLRLSCAASGSTFVWNAMGWYRQAPGKERELVAAITNDGRTNYADSVKGRFTISRDNAKNTVYLQMNSLKPEDTAVYYCNADGFNSYWWNYYWGQGTQVTVSS | low polyreactivity |
| QVQLVESGGGLVQAGGSLRLSCAASGSTFVWNAMGWYRQAPGKERELVATITLSTGSTYYADSVKGRFTISRDNAKNTVYLQMNSLKPEDTAVYYCNTEIYVDIISDYGYWGQGTQVTVSS | low polyreactivity |
| QVQLVESGGGLVQAGGSLRLSCAASGSTFVYAMVWYRPAPGKERELVAAITTGDSTYYADSVKGRFTISRDNAKNTVYLQMNSLKPEDTAVYYCAAQWYTRDGEYGYWGQGTQVTVSS | low polyreactivity |
| QVQLVESGGGLVQAGGSLRLSCAASGSTFVYNAMGWYRQAPGKERELVAAISRGGGITYYADSVKGRFTISRDNAKNTVYLQMNSLKPEDTAVYYCNKSRYKSYSYDYWGQGTQVTVSS | high polyreactivity |
| QVQLVESGGGLVQAGGSLRLSCAASGSTFVYNDMGWYRQAPGKEREFVAAITYSGSTYYADSVNGRFTISRDNAKNTVYLQMNSLKPEDTAVYYCNADPRRPVTSYDYWGQGTQVTVSS | low polyreactivity |
| QVQLVESGGGLVQAGGSLRLSCAASGSTFVYYAMGRYRQAPGKERELVAAITASGGGTYYADSVKGRFTISRDNAKNTVYLQMNSLKPEDTAVYYCNRGYDYWGQGTQVTVSS | low polyreactivity |
| QVQLVESGGGLVQAGGSLRLSCAASGSTFVYYAMGWSRQAPGKERELVASIRTGGTTNYADSVKGRFTISRDNAKNTVYLQMNSLKPEDTAVYYCNKDTRPTDTTVSLYYWSAWRDYWGQGTQVTVSS | low polyreactivity |
| QVQLVESGGGLVQAGGSLRLSCAASGSTFVYYAMGWYIQAPGKEREFVAGISRSGGSTYYADSVKGRFTISRDNAMNTVYLQMNSLKPEDTAVYSCNASGGLPKYGYWGQGTQVTVSS | high polyreactivity |
| QVQLVESGGGLVQAGGSLRLSCAASGSTFVYYDMGWYRQAPGKERELVADISDSGGSTNYADSVKGRFTISRDNAKNTVYLQMNSLKPEDTAVYYCAADSADPTEYDYWGQGTQVTVSS | low polyreactivity |
| QVQLVESGGGLVQAGGSLRLSCAASGSTFVYYTMGWYRPAPGKERELVAAITSGTSTNYADSVKGRFTISRDNAKNTVYLQMNSLKPEDTAVYDCNAQRRGTYYWGQGTQVTVSS | high polyreactivity |
| QVQLVESGGGLVQAGGSLRLSCAASGSTFWANAMGWYRQAPGKERELVAGITWNAGSTYYADSVKGRFTISRDYAKNNVYFQMNSLNPEDTAVDYCAAYYHFQGWGPGYNSWGQGTQVTVSS | low polyreactivity |
| QVQLVESGGGLVQAGGSLRLSCAASGSTFWDYAMGWYRQAPGKERELVAAISSGGSTNYADSVKGRFTISRDNAKNTVYLQMNSLKPEDTAVYYCAVGYGGYYYWGQGTQVTVSS | high polyreactivity |
| QVQLVESGGGLVQAGGSLRLSCAASGSTFWDYAMGWYRQAPGKERELVAAISTSGGSTYYADSVKGRFTISRDNAKNTVYLQMNSLKPEDTAVYYCAAGRVRRRVWYNYWGQGTQVTVSS | high polyreactivity |
